Results on 10 molecules are retold here after US20150344570A1 (published 2015).

B1: GpH7-A5/GpH7-B3 variant Y300_11K/GpL16-k0 (heterodimerized antibody, He Ab) (antibody, human IgG1, kappa)
heavy 1: not shown
heavy 2: not shown
light: DIVMTQSPLSLPVTPGEPASISCQASESLVHSNRNTYLHWYLQKPGQSPQLLIYKVSNRFSGVPDRFSGSGSGTDFTLKISRVEAEDVGVYYCSQNTHVPPTFGQGTKVEIERTVAAPSVFIFPPSDEQLKSGTASVVCLLNNFYPREAKVQWKVDNALQSGNSQESVTEQDSKDSTYSLSSTLTLSKADYEKHKVYACEVTHQGLSSPVTKSFNRGEC
notes: Anti-glypican-3 IgG1; alteration only in the GpH7-B3 (K439E) chain; other H chain is GpH7-A5 (D356K/H435R)
B2: GpH7-A5/GpH7-B3 variant Y300_09D/GpL16-k0 (heterodimerized antibody, He Ab) (antibody, human IgG1, kappa)
heavy 1: not shown
heavy 2: not shown
light: DIVMTQSPLSLPVTPGEPASISCQASESLVHSNRNTYLHWYLQKPGQSPQLLIYKVSNRFSGVPDRFSGSGSGTDFTLKISRVEAEDVGVYYCSQNTHVPPTFGQGTKVEIERTVAAPSVFIFPPSDEQLKSGTASVVCLLNNFYPREAKVQWKVDNALQSGNSQESVTEQDSKDSTYSLSSTLTLSKADYEKHKVYACEVTHQGLSSPVTKSFNRGEC
notes: as for B1
B3: GpH7-A5/GpH7-B3 variant Y300_02A/GpL16-k0 (heterodimerized antibody, He Ab) (antibody, human IgG1, kappa)
heavy 1: not shown
heavy 2: not shown
light: DIVMTQSPLSLPVTPGEPASISCQASESLVHSNRNTYLHWYLQKPGQSPQLLIYKVSNRFSGVPDRFSGSGSGTDFTLKISRVEAEDVGVYYCSQNTHVPPTFGQGTKVEIERTVAAPSVFIFPPSDEQLKSGTASVVCLLNNFYPREAKVQWKVDNALQSGNSQESVTEQDSKDSTYSLSSTLTLSKADYEKHKVYACEVTHQGLSSPVTKSFNRGEC
notes: as for B1
B4: GpH7-A5/GpH7-B3 variant Y296_16H/GpL16-k0 (heterodimerized antibody, He Ab) (antibody, human IgG1, kappa)
heavy 1: not shown
heavy 2: not shown
light: DIVMTQSPLSLPVTPGEPASISCQASESLVHSNRNTYLHWYLQKPGQSPQLLIYKVSNRFSGVPDRFSGSGSGTDFTLKISRVEAEDVGVYYCSQNTHVPPTFGQGTKVEIERTVAAPSVFIFPPSDEQLKSGTASVVCLLNNFYPREAKVQWKVDNALQSGNSQESVTEQDSKDSTYSLSSTLTLSKADYEKHKVYACEVTHQGLSSPVTKSFNRGEC
notes: as for B1
B5: GpH7-A5/GpH7-B3 variant Y296_18N/GpL16-k0 (heterodimerized antibody, He Ab) (antibody, human IgG1, kappa)
heavy 1: not shown
heavy 2: not shown
light: DIVMTQSPLSLPVTPGEPASISCQASESLVHSNRNTYLHWYLQKPGQSPQLLIYKVSNRFSGVPDRFSGSGSGTDFTLKISRVEAEDVGVYYCSQNTHVPPTFGQGTKVEIERTVAAPSVFIFPPSDEQLKSGTASVVCLLNNFYPREAKVQWKVDNALQSGNSQESVTEQDSKDSTYSLSSTLTLSKADYEKHKVYACEVTHQGLSSPVTKSFNRGEC
notes: as for B1
B6: GpH7-A5/GpH7-B3 variant T335_20W/GpL16-k0 (heterodimerized antibody, He Ab) (antibody, human IgG1, kappa)
heavy 1: not shown
heavy 2: not shown
light: DIVMTQSPLSLPVTPGEPASISCQASESLVHSNRNTYLHWYLQKPGQSPQLLIYKVSNRFSGVPDRFSGSGSGTDFTLKISRVEAEDVGVYYCSQNTHVPPTFGQGTKVEIERTVAAPSVFIFPPSDEQLKSGTASVVCLLNNFYPREAKVQWKVDNALQSGNSQESVTEQDSKDSTYSLSSTLTLSKADYEKHKVYACEVTHQGLSSPVTKSFNRGEC
notes: as for B1
B7: GpH7-A5/GpH7-B3 variant Y300_13S/GpL16-k0 (heterodimerized antibody, He Ab) (antibody, human IgG1, kappa)
heavy 1: not shown
heavy 2: not shown
light: DIVMTQSPLSLPVTPGEPASISCQASESLVHSNRNTYLHWYLQKPGQSPQLLIYKVSNRFSGVPDRFSGSGSGTDFTLKISRVEAEDVGVYYCSQNTHVPPTFGQGTKVEIERTVAAPSVFIFPPSDEQLKSGTASVVCLLNNFYPREAKVQWKVDNALQSGNSQESVTEQDSKDSTYSLSSTLTLSKADYEKHKVYACEVTHQGLSSPVTKSFNRGEC
notes: as for B1
B8: GpH7-A5/GpH7-B3 variant Y296_11K/GpL16-k0 (heterodimerized antibody, He Ab) (antibody, human IgG1, kappa)
heavy 1: not shown
heavy 2: not shown
light: DIVMTQSPLSLPVTPGEPASISCQASESLVHSNRNTYLHWYLQKPGQSPQLLIYKVSNRFSGVPDRFSGSGSGTDFTLKISRVEAEDVGVYYCSQNTHVPPTFGQGTKVEIERTVAAPSVFIFPPSDEQLKSGTASVVCLLNNFYPREAKVQWKVDNALQSGNSQESVTEQDSKDSTYSLSSTLTLSKADYEKHKVYACEVTHQGLSSPVTKSFNRGEC
notes: as for B1
B9: GpH7-A5/GpH7-B3 variant Y300_03V/GpL16-k0 (heterodimerized antibody, He Ab) (antibody, human IgG1, kappa)
heavy 1: not shown
heavy 2: not shown
light: DIVMTQSPLSLPVTPGEPASISCQASESLVHSNRNTYLHWYLQKPGQSPQLLIYKVSNRFSGVPDRFSGSGSGTDFTLKISRVEAEDVGVYYCSQNTHVPPTFGQGTKVEIERTVAAPSVFIFPPSDEQLKSGTASVVCLLNNFYPREAKVQWKVDNALQSGNSQESVTEQDSKDSTYSLSSTLTLSKADYEKHKVYACEVTHQGLSSPVTKSFNRGEC
notes: as for B1
B10: GpH7-A5/GpH7-B3 variant Y300_10E/GpL16-k0 (heterodimerized antibody, He Ab) (antibody, human IgG1, kappa)
heavy 1: not shown
heavy 2: not shown
light: DIVMTQSPLSLPVTPGEPASISCQASESLVHSNRNTYLHWYLQKPGQSPQLLIYKVSNRFSGVPDRFSGSGSGTDFTLKISRVEAEDVGVYYCSQNTHVPPTFGQGTKVEIERTVAAPSVFIFPPSDEQLKSGTASVVCLLNNFYPREAKVQWKVDNALQSGNSQESVTEQDSKDSTYSLSSTLTLSKADYEKHKVYACEVTHQGLSSPVTKSFNRGEC
notes: as for B1

T1 sequence (P12314 16-292): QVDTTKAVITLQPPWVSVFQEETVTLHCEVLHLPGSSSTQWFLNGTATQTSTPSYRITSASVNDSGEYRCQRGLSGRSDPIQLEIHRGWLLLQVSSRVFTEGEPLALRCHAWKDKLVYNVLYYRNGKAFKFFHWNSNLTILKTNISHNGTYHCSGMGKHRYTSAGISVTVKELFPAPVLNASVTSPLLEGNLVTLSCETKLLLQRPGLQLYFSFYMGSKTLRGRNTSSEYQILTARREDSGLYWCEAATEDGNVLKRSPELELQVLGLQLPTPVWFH

The experiment addresses T1, FcγRIa (human, UniProt P12314 16-292).
T1 construct: extracellular domain; Soluble extracellular domain with C-terminal His tag, expressed in FreeStyle293 cells; analyte in Biacore; also called FcgRI; CD64; not shown: His tag attached to the C terminus
Kind of experiment: SPR (Biacore), antibody captured on antigen-peptide chip, FcγRIa as analyte; binding activity relative to control GpH7-A5/GpH7-B3/GpL16-k0 (HeCon Ab) x100. The procedure:
Analysis of interaction between objective antibody and the FcγR was carried out using Biacore T100 (GE Healthcare). HBS-EP+ (GE Healthcare) was used as the running buffer, and the measurement temperature was set to 25° C. Chips produced by immobilizing the antigen peptide by the amine coupling method to a Series S Sencor Chip CM5 (GE Healthcare), or alternatively, chips produced by allowing preliminarily biotinylated antigen peptides to interact with and immobilize onto a Series S Sensor Chip SA (certified) (GE Healthcare) were used. Antibodies of interest were captured onto an antigen peptide-immobilized chip, and allowed to interact to each FcγR diluted with running buffer. To regenerate and repeatedly use the chip, the antibodies captured on the chip were washed off by reacting 10 mM glycine-HCl, pH 1.5.
On the technique in general: SPR reads the build-up and loss of mass on a sensor chip optically.
In the case of B1, the He/Con_1a is 107 % of control (=100).
Regarding B2, the He/Con_1a is 112 % of control (=100).
In the case of B3 it was 112 % of control (=100); in that of B4, 106 % of control (=100).
In the case of B5 it was 106 % of control (=100).
For B6 the value was 106 % of control (=100); for B7, 111 % of control (=100); for B8, 105 % of control (=100).
Turning to B9, the He/Con_1a is 117 % of control (=100).
In the case of B10 it was 114 % of control (=100).
